# In patent US20250236878A1 (priority 2019, published 2025):
# B1: endochitinase (SEQ ID NO: 778): endochitinase as printed in b921; probably a misprint for SEQ ID NO: 777 (protein, listed as Serratia marcescens)
# chain: MSTRKAVIGYYFIPTNQINNYTETDTSVVPFPVSNITPAKAKQLTHINFSFLDINSNLECAWDPATNDAKARDVVNRLTALKAHNPSLRIMFSIGGWYYSNDLGVSHANYVNAVKTPASRAKFAQSCVRIMKDYGFDGVDIDWEYPQAAEVDGFIAALQEIRTLLNQQTVADGRQALPYQLTIAGAGGAFFLSRYYSKLAQIVAPLDYINLMTYDLAGPWEKVTNHQAALFGDAAGPTFYNALREANLGWSWEELTRAFPSPFSLTVDAAVQQHLMMEGVPSAKIVMGVPFYGRAFKGVSGGNGGQYSSHSTPGEDPYPSTDYWLVGCEECVRDKDPRIASYRQLEQMLQGNYGYQRLWNDKTKTPYLYHAQNGLFVTYDDAESFKYKAKYIKQQQLGGVMFWHLGQDNRNGDLLAALDRYFNAADYDDSQLDMGTGLRYTGVGPGNLPIMTAPAYVPGTTYAQGALVSYQGYVWQTKWGYITSAPGSDSAWLKVGRVA
# B2: Endochitinase (ChiC) Bacillus thuringiensis immobilized enzyme (SEQ ID NO: 777) (protein, listed as Bacillus thuringiensis)
# chain: DSPKQSQKIVGYFPSWGVYGRNYQVADIDASKLTHLNYAFADICWKGKHGNPSTHPDNPNKQTWNCKESGVPLQNKEVPNGTLVLGEPWADVTKSYPGSGTTWEDCDKYARCGNFGELKRLKAKYPHLKTIISVGGWTWSNRFSDMAADEKTRKVFAESTVAFLRAYGFDGVDLDWEYPGVETIPGGSYRPEDKQNFTLLLQDVRNALNKAGAEDGKQYLLTIASGASQRYADHTELKKISQILDWINIMTYDFHGGWEATSNHNAALYKDPNDPAANTNFYVDGAIDVYTNEGVPVDKLVLGVPFYGRGWKSCGKENNGQYQPCKPGSDGKLASKGTWDDYSTGDTGVYDYGDLTANYVNKNGFVRYWNDTAKVPYLYNATTGTFISYDDNESMKYKTDYIKTKGLSGAMFWELSGDCRTSPKYSCSGPKLLDTLVKELLGGPINQKDTEPPTNVKNIIVTNKTSSSVQLSWTASTDNVGVTEYEITAGEEKWSATTNSITIKNLKPNTEYTFSVIAKDASGNKSHPTALTVKTDEANTTPPDGNGTATFSVTSNWGSGYNFSIIIKNNGTIPIKNWKLEFDYSGNLTQVWDSKISSKTNNHYVITNAGWNGEIPPGGSITIGGAGTGNPAELLNAVISEN
# modifications: immobilized
# B3: SEQ ID NO: 731: callose-degrading β-1,3-endoglucanase from barley (Hordeum vulgare) (protein)
# chain: GVCYGVIGNNLPSRSDVVQLYRSKGINGMRIYFADGQALSALRNSGIGLILDIGNDQLANIAASTSNAASWVQNNVRPYYPAVNIKYIAAGNEVQGGATQSILPAMRNLNAALSAAGLGAIKVSTSIRFDEVANSFPPSAGVFKNAYMTDVARLLASTGAPLLANVYPYFAYRDNPGSISLNYATFQPGTTVRDQNNGLTYTSLFDAMVDAVYAALEKAGAPAVKVVVSESGWPSAGGFAASAGNARTYNQGLINHVGGGTPKKREALETYIFAMFNENQKTGDATERSFGLFNPDKSPAYNIQF
# modifications: Hordeum vulgare
# B4: β-1,3-Endoglucanase from Barley (SEQ ID NO: 731) (protein)
# chain: B3 chain
# modifications: Hordeum vulgare
# B5: ACC deaminase: 1-aminocyclopropane-1-carboxylate deaminase polypeptide with two substitutions relative to wild type (protein, listed as Bacillus thuringiensis)
# chain: MNLAKFPRKKYTESYTPIEKLNNFSEALGGPTIYFKRDDLLGLTAGGNKTRKLEFLVADAQEKGADTLITAGGIQSNHCRLTLAAAVKEKMKCILVLEEGLEPEEKRDFNGNYFLYHLLGAENVIVVPNGADLMEEMNKVAKEVSEKGSTPYVIPVGGSNPTGAMGYVACAQEIMAQSFEQGIDFSSVVCVSGSGGMHAGLITGFSGTQSHIPVIGINVSRGKAEQEEKVAKLVDETSAHVGIPNFISRDAVTCFDEYVGPGYALPTPEMVEAVQLLAKTEGILLDPVYEGKAVAGLIDLIRKGKFNKEDNILFVHLGGSPALYANTSLFA
# B6: SEQ ID NO: 732: β-1,3 endoglucanase, Paenibacillus species (protein)
# chain: AETAGTTITSMSYFSTADGPIITKSGVGQASYGFVMPIFNGGSATWNDVAQDLGVKVKVNGSWVDIDSVSSFVYNQNWGHWNDGGFTGYWFTLSATTEIQLYSKANEVTLEYSLVFQNINKTTITAMTPTQGPQITAGFTGGAGFTYPIFNHDPAITYAAVADDLKVYVKPVNSSQWIDIDNNAASGWIYDQNFGQFTDGGGGYWFNVTESINVKLESKTSSTNIVYTISFNEPVRNSYVLTPYEGTTFTADASGAIGIPLPKIDGGAPIGTELGNFVYQININGQWVDLDNSSQSGFVYSANGYNNMSAANQWGYWADHIYGLWFQPIQVDMQIRIGYPLNGQAGGSVGSNFVNYTLIGNPDAPRPDVNDQEDIPIGTPNDSAIEGMNLIWQDEFNGTALDQSKWNYETGYYLNDDPNTWGWGNSELQHYTDRAQNVFVQDGKLNIKALNEPKSFPQDPSRYAQYSSGKINTKDHFSLKYGRVDFRAKLPTGNGIWPALWMLPQDNVYGTWASSGEIDVMEAKGRLPGSTSGAVHFGGQWPTNRYLSGEYHFPEGQTFANDYHVYSVVWEEDNIKWYVDGKFFFKVTRDQWYSAAAPNNPNAPFDQPFYLIMNLAIGGTFDGGRTPDPSDIPATMQVDYVRVYKEGEGGGQNPGNVPVTGVTVNPTTAQVEVGQSVQLNASVAPSNATNKQVTWSVSGSSIASVSPNGLVTGLAQGTTTVTATTADGNKAASATITVAPAPSTVIVIGDEVKGLKKIGDDLLFYVNGATFADLHYKVNNGGQLNVAMAPTGNGNYTYPVHNLKHGDTVEYFFTYNPGQGALDTPWQTYVHGVTQGTPE
# modifications: Paenibacillus spp.
# notes: β-1,3 endoglucanase, Paenibacillus species
# B7: β-1,3-endoglucanase (bglH) Paenibacillus immobilized enzyme (SEQ ID NO: 732) (protein)
# chain: B6 chain
# modifications: immobilized; Paenibacillus spp.
# B8: SEQ ID NO: 772: β-1,3 endoglucanase, Cellulosimicrobium cellulans DK1 (protein)
# chain: APGDLLWSDEFDGAAGSAPNPAVWNHETGAHGWGNAELQNYTASRANSALDGQGNLVITARREGDGSYTSARMTTQGKYQPQYGRIEARIQIPRGQGIWPAFWMLGGSFPGTPWPSSGEIDIMENVGFEPHRVHGTVHGPGYSGGSGITGMYQHPQGWSFADTFHTFAVDWKPGEITWFVDGQQFHRVTRASVGANAWVFDQPFFLILNVAVGGQWPGYPDGTTQLPQQMKVDYVRVYDNGSGSSNPGNPGTGLPTGTGAVRAANGMCIDVPWADPTDGNPVQIVTCSGNAAQTWTRGSDGTVRALGKCLDVRDGSTTRGAAVQVWTCNGTGAQKWAYDAGSKALRNPQSGLCLDATGGAPLHDGQRLQTWTCNGTTAQQWTL
# modifications: Cellulosimicrobium cellulans strain DK-1
# notes: β-1,3 endoglucanase, Cellulosimicrobium cellulans DK1
# B9: β-1,3-endoglucanase (DK-1) Cellulosimicrobium cellulans (SEQ ID NO: 772) (protein)
# chain: B8 chain
# modifications: Cellulosimicrobium cellulans strain DK-1
# Key:
# [1] = test system: Cladosporium cladosporioides; type: in vivo
# [2] = test system: Citrus trees infected with CLas; assay: Recovery composition trunk injection: 'Valencia' orange fruit yield (Examples 3, 19); type: in vivo, Citrus sinesis
# [3] = test system: Citrus trees infected with Candidatus Liberibacter asiaticus; type: in vivo, Citrus x paradisi; conditions: […], trunk injection
# [4] = test system: Citrus trees infected with CLas; set-up: species or system Citrus sinesis; conditions: in vivo
# [5] = test system: corn hybrids Beck's 6127 BHMF and 6127 DVMF; conditions: in vivo
molecule,measurement,setting,value
B1,mold growth relative to the surfactant only control,[1]; in vivo,83%
B2,Observed mold growth spots (out of 18 inoculated),[1]; 6 days,15 spots (out of 18 inoculated)
same,Percent of mold growth relative to surfactant only control,[1]; 6 days,83%
B3,increased yield compared to the untreated control,"[2]; 'Valencia' trees, trunk injection",14.5 kg per tree
same,"yield, average relative to control","[2]; 'Valencia', combined average of 2 sites (Table 56)",124%
same,increased yield compared to the untreated control,[3]; harvested 20 months post-treatment,4.1 kg per tree
same,fruit size and ^oBrixc to Citric Acid ratio (Brix:CA) relative to the untreated control,[4],increased
B4,Average Yield (kg per tree),"[3]; harvested 20 months post-treatment, Bt.4Q7Flg22 0.33 mg/tree, endoglucanase 2600 U/tree, mixture 660 U + 660 U + 0.27 mg/tree",38.7 kg per tree
same,Average Yield (kg per tree) Relative to Untreated,[3]; untreated = 34.6,(112%)
B5,average yield benefit over the control corn plants,[5],+7.16 flu/Ac
B6,mold growth relative to the surfactant only control,[1]; in vivo,61%
B7,Observed mold growth spots (out of 18 inoculated),[1]; 6 days,11 spots (out of 18 inoculated)
same,Percent of mold growth relative to surfactant only control,[1]; 6 days,61%
B8,mold growth compared to the surfactant control treatment,[1]; in vivo,85%
B9,Observed mold growth spots (out of 18 inoculated),[1]; 6 days,12 spots (out of 18 inoculated)
same,Percent of mold growth relative to control (mold only),[1]; 6 days,85%
